Source: US20230295324A1 (published 2023)

T1: human OX40 on cells (CHO-K1/hu OX40) (human, UniProt P43489 29-277)
T1 construct: whole, on cells; Also used here for OX40 on the HEK293/OX40/NF-kb reporter cells and on human T cells in the functional assays; also called CHO-K1/OX40; human OX40 cells
T1 sequence (looked up): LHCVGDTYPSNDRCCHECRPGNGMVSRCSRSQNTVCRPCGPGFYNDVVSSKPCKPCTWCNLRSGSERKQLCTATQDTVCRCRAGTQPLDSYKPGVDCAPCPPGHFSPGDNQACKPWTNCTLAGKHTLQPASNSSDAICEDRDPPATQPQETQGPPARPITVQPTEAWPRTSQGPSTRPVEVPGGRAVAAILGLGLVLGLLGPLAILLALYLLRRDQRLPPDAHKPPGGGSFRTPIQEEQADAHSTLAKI

T2: human OX40 protein (Acro biosystem, #OX0-H5224) (human, UniProt P43489 29-216)
T2 construct: Bought recombinant protein
T2 sequence (looked up): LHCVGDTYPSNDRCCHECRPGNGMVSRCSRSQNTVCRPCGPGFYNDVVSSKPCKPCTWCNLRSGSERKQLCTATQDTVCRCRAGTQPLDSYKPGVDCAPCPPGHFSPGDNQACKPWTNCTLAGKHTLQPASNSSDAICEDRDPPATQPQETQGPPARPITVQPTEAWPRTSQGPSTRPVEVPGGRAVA


Assays:
[1] = molecular target: T1, human OX40 on cells (CHO-K1/hu OX40); experiment: FACS, CHO-K1/hu OX40 cells
Procedure: This example is intended to investigate the in vitro binding activity of anti-human OX40 HCAb monoclonal antibodies to human OX40. The antibody binding assay at the cellular level was performed using a stable CHO-K1 cell strain overexpressing human OX40 (CHO-K1/hu OX40). Briefly, the CHO-K1/hu OX40 cells were digested, resuspended in an F12K complete medium and washed once with PBS. The cell density was adjusted to 1×10⁶ cells/mL with PBS. The cells were seeded in a 96-well V-bottom plate (Corning, #3894) at 100 μL/well, and centrifuged, and then the supernatant was discarded. Then, the test antibodies diluted in a 3-fold gradient at concentrations that were 2 times the final concentrations were added at 100 μL/well. The cells were incubated at 4° C. for 1 h away from light. Thereafter, the cells in each well were rinsed twice with 100 μL of pre-cooled PBS, and centrifuged at 500 g at 4° C. for 5 min, and then the supernatant was discarded. […] The plate was incubated away from light at 4° C. for 30 min. The cells in each well were rinsed twice with 100 μL of pre-cooled PBS, and centrifuged at 500 g at 4° C. for 5 min, and then the supernatant was discarded. Finally, the cells in each well were resuspended in 200 μL of pre-cooled PBS, and the fluorescence signal values were read using a BD FACS CANTOII.

[2] = molecular target: T2, human OX40 protein (Acro biosystem, …); experiment: ELISA, coated human OX40 protein
Procedure: (§1) This example is intended to investigate the in vitro binding activity of the anti-OX40 HCAb monoclonal antibodies prepared in Example 1 to human and cynomolgus monkey OX40 proteins. The antibody binding assay at the protein level was performed using a human OX40 protein (Acro biosystem, #OX0-H5224) and a cynomolgus monkey OX40 protein (Novoprotein, #CB17). Briefly, a 384-well plate (PerkinElmer, #6007509) was coated with 1 μg/mL human OX40 protein and a cynomolgus monkey OX40 protein dissolved in PBS at 20 μL/well, and incubated at 4° C. overnight. The next day, the 384-well plate was washed three times with PBS containing 0.05% Tween (MEDICAGO, #09-9410-100), and blocked with PBS containing 2% milk (Bio-Rad, #170-6404) at 37° C. for 1 h. […] The plate was added with a stop buffer (BBI life sciences, #E661006-0200) at 20 μL/well, and read for OD₄₅₀₋₆₅₀ values using a plate reader (Molecular Devices, model: SpectraMax Plus). The values were analyzed with Graphad 8.0 and plotted.

[3] = molecular target: T3, cynomolgus monkey OX40 protein (Novoprotein, #CB17) (cynomolgus monkey); experiment: ELISA, coated cyno OX40 protein
T3 construct: Bought recombinant protein; also called cyno OX40
Procedure: as §1

[4] = molecular target: T1, human OX40 on cells (CHO-K1/hu OX40); experiment: FACS, blocking of biotin-human OX40L on CHO-K1/hu OX40 cells
Procedure: Briefly, the CHO-K1/hu OX40 cells were digested and resuspended in an F-12K complete medium, and the cell density was adjusted to 1×10⁶ cells/mL. The cells were seeded in a 96-well V-bottom plate (Corning, #3894) at 100 μL/well, and centrifuged, and then the supernatant was discarded. The test antigen-binding proteins diluted in a 3-fold gradient at concentrations that were 2 times the final concentrations were added at 100 μL/well, and the mixture was well mixed, wherein the antigen-binding protein had the highest final concentration of 100 nM, and a total of 8 concentrations were obtained. […] The cells were incubated at 4° C. for 1 h away from light. Thereafter, the cells were centrifuged at 4° C. for 5 min, and then the supernatant was discarded. […] The cells in each well were rinsed twice with 100 μL of pre-cooled PBS, and centrifuged at 500 g at 4° C. for 5 min, and then the supernatant was discarded. A 1:200 fluorescent secondary antibody PE Streptavidin (BD Biosciences, #554061) was added at 100 μL/well, and the cells were incubated away from light at 4° C. for 30 min. The cells in each well were rinsed twice with 200 μL of pre-cooled PBS, and centrifuged at 500 g at 4° C. for 5 min, and then the supernatant was discarded. Finally, the cells in each well were resuspended in 200 μL of precooled PBS. Fluorescence signal values were read using BD FACS CANTOII, and IC50 was calculated. Inhibition rate %={average MFI of non-blocking control well−MFI value of OX40 antibody}/{(average MFI of non-blocking control well)−average MFI of 100% blocking control well)}×100%.

[5] = molecular target: T1, human OX40 on cells (CHO-K1/hu OX40); experiment: cell-based or functional assay

Binder | EC50 [1] | Maximum MFI [1] | EC50 [2] | Maximum OD [2] | EC50 [3] | Maximum OD [3] | Maximum inhibition rate (%) [4] | EC50, HEK293/OX40/NF-kb luciferase reporter [5] | Maximum fluorescence signal value, HEK293/OX40/NF-kb luciferase reporter [5] | IC50 [4]
PR002061 (antibody, human IgG1, V domains shown, no light chain; also called anti-OX40 HCAb antibody) VH: EVQLLESGGGLVQPGGSLRLSCAASGFTFSSYAMSWVRQAPGKGLEWVSAISGRGGSTYYADSVRGRFTISRDNSKNTLYLQMNSLRAEDTAVYYCANGMTGTTDVDYWGQGTLVTVSS | 10.9 nM | 1740 MFI | 0.134 nM | 1.96 OD | 0.152 nM | 1.87 OD | 16% | 23.2 nM | 156000 luminescence | 
PR002062 (antibody, human IgG1, V domains shown, no light chain; also called anti-OX40 HCAb antibody) VH: EVQLLESGGGLVQPGGSLRLSCAASGFTFSSYAMSWVRQAPGKGQEWVSAISGSGGSTFYADSVRGRFTISRDNSKNTLYLQMSSLRAEDTAVYYCANGMTGTTDVDYWGQGTLVTVSS | 37.9 nM | 1900 MFI | 0.103 nM | 1.94 OD | 0.126 nM | 1.81 OD | 13% | 25.2 nM | 149000 luminescence | 
PR002056 (antibody, human IgG1, V domains shown, no light chain; also called anti-OX40 HCAb antibody) VH: EVQLLESGGGLVQPGGSLRLSCAASGFTFSSYAMSWVRQAPGKGLEWVSAISGGGGSIFYADSVRGRFTISRDNSKNTLYLQMNSLRAEDTAVYYCANGMTGTTDVDYWGQGTLVTVSS | 3.12 nM | 2930 MFI | 0.057 nM | 1.71 OD | 0.0682 nM | 1.69 OD | 34% | 4.89 nM | 154000 luminescence | 43.7 nM
PR002068 (antibody, human IgG1, V domains shown, no light chain; also called anti-OX40 HCAb antibody) VH: EVQLLESGGGLVQPGGSLRLSCAASGFSFSSYAMTWVRQAPGKGLEWVSAISGGGGSIFYADSVRGRFTISRDNSKNTLYLQMNSLRAEDTAVYYCANGMTGSTDVDYWGQGTQVTVSS | 10.1 nM | 2130 MFI | 0.092 nM | 2.42 OD | 0.253 nM | 2.38 OD | 25% | 22.9 nM | 139000 luminescence | 23.1 nM
PR002064 (antibody, human IgG1, V domains shown, no light chain; also called anti-OX40 HCAb antibody) VH: EVQLVETGGGLVQPGGSLRLSCAASGFTFSSYAMSWVRQAPGKGQEWVSAISGSGGSTFYADSVRGRFTISRDNSKNTLYLQMSSLRAEDTAVYYCANGMTGTTDVDYWGQGTLVTVSS | 22.4 nM | 1570 MFI | 0.0814 nM | 2.28 OD | 0.218 nM | 2.08 OD | 20% | 30.3 nM | 147000 luminescence | 
PR002060 (antibody, human IgG1, V domains shown, no light chain; also called anti-OX40 HCAb antibody) VH: EVQLLESGGGLVQPGGSLRLSCAASGFTFSDYAMSWVRQAPGKGLEWVSAISGRGGSTYYADSVRGRFTISRDNSKNTLYLQMTSLRAEDTAVYYCANGMTGTTDVDYWGQGTLVTVSS | 8.95 nM | 1860 MFI | 0.0828 nM | 2.09 OD | 0.0938 nM | 1.94 OD | 12% | 15.1 nM | 132000 luminescence | 
PR002059 (antibody, human IgG1, V domains shown, no light chain; also called anti-OX40 HCAb antibody) VH: EVQLLESGGGLVQPGGSLRLSCVVSGLTFSSYAMSWVRQAPGKGREWVSAISGRGGSTFYADSVRGRFTISRDNSKNTLYLQMNSLRAEDTAVYYCANGMTGSTDVDYWGQGTLVTVSS | 1.35 nM | 3630 MFI | 0.0695 nM | 2 OD | 0.0774 nM | 1.9 OD | 79% | 1.83 nM | 117000 luminescence | 15.9 nM
PR002057 (antibody, human IgG1, V domains shown, no light chain; also called anti-OX40 HCAb antibody) VH: EVQLLESGGGLVQPGGSLRLSCAASGFIFSSYAMSWVRQAPGKGLEWVSAISGGGGSTFYADSVRGRFTISRDNSKNTLYLQMNSLRAEDTAVYYCADGMTGTTDVDYWGQGTLVTVSS | 12.8 nM | 1670 MFI | 0.124 nM | 1.76 OD | 0.133 nM | 1.76 OD | 12% | 14.3 nM | 172000 luminescence | 

Next, values leading:

EC50 [1] | Maximum MFI [1] | EC50 [2] | Maximum OD [2] | EC50 [3] | Maximum OD [3] | Maximum inhibition rate (%) [4] | EC50, HEK293/OX40/NF-kb luciferase reporter [5] | Maximum fluorescence signal value, HEK293/OX40/NF-kb luciferase reporter [5] | IC50 [4] | Binder
4.39 nM | 2530 MFI | 0.0729 nM | 2.4 OD | 0.132 nM | 2.51 OD | 46% | 7.6 nM | 129000 luminescence | 67.6 nM | PR002070 (antibody, human IgG1, V domains shown, no light chain; also called anti-OX40 HCAb antibody) VH: EVQLLESGGGLVQPGGSLRLSCIASGFSFSSYAMSWVRQAPGKGLEWVSAISGRGGSTFYADSVRGRFNISRDNSKNTLYLQMNSLRVEDTAVYYCANGMTGTTDVDYWGQGTLVTVSS
 |  | 0.0618 nM | 2.48 OD | 0.415 nM | 3.07 OD |  |  |  |  | PR002075 (antibody, human IgG1, V domains shown, no light chain; also called anti-OX40 HCAb antibody) VH: EVQLVETGGGLIQPGGSLRLSCAASGFTFSSYAMSWVRQAPGKGLEWVSAISGSGGNTYYADSVRGRFTISRDNSKNTLYLQMNSLRAEDTAVYYCANGITGTTDVDYWGQGTRVTVSS
4.43 nM | 2990 MFI | 0.051 nM | 2.24 OD | 0.129 nM | 2.24 OD | 53% | 6.27 nM | 99700 luminescence | 50.9 nM | PR002069 (antibody, human IgG1, V domains shown, no light chain; also called anti-OX40 HCAb antibody) VH: EVQLLESGGGLVQPGGSLRLSCAASGFTFSSYAMSWVRQAPGKGREWVSAISGGGGNTFYADSVRGRFTISRDNSKNTLYLQMNSLRAEDTAVYYCANGVTGTTDVDYWGQGTLVTVSS
